In paper PMC9012456 (Science Advances, 2022):

B1: KaiB (natural protein)
chain: MSPRKTYILKLYVAGNTPNSVRALKTLKNILEVEFQGVYALKVIDVLKNPQLAEEDKILATPTLAKVLPLPVRRIIGDLSDREKVLIGLDLLYGELQDSDDF
B2: KaiA (natural protein)
chain: MLSQIAICIWVESTAILQDCQRALSADRYQLQVCESGEMLLEYAQTHRDQIDCLILVAANPSFRAVVQQLCFEGVVVPAIVVGDRDSEDPDEPAKEQLYHSAELHLGIHQLEQLPYQVDAALAEFLRLAPVETMADHIMLMGANHDPELSSQQRDLAQRLQERLGYLGVYYKRDPDRFLRNLPAYESQKLHQAMQTSYREIVLSYFSPNSNLNQSIDNFVNMAFFADVPVTKVVEIHMELMDEFAKKLRVEGRSEDILLDYRLTLIDVIAHLCEMYRRSIPRET
B3: KaiC-pSpT (KaiC fully phosphorylated at S431 and T432) (natural protein)
chain: MTSAEMTSPNNNSEHQAIAKMRTMIEGFDDISHGGLPIGRSTLVSGTSGTGKTLFSIQFLYNGIIEFDEPGVFVTFEETPQDIIKNARSFGWDLAKLVDEGKLFILDASPDPEGQEVVGGFDLSALIERINYAIQKYRARRVSIDSVTSVFQQYDASSVVRRELFRLVARLKQIGATTVMTTERIEEYGPIARYGVEEFVSDNVVILRNVLEGERRRRTLEILKLRGTSHMKGEYPFTITDHGINIFPLGAMRLTQRSSNVRVSSGVVRLDEMCGGGFFKDSIILATGATGTGKTLLVSRFVENACANKERAILFAYEESRAQLLRNAYSWGMDFEEMERQNLLKIVCAYPESAGLEDHLQIIKSEINDFKPARIAIDSLSALARGVSNNAFRQFVIGVTGYAKQEEITGLFTNTSDQFMGAHSITDSHISTITDTIILLQYVEIRGEMSRAINVFKMRGSWHDKAIREFMISDKGPDIKDSFRNFERIISGSPTRITVDEKSELSRIVRGVQEKGPES
modifications: phosphorylated S431 (pS431), phosphorylated T432 (pT432)
B4: KaiC-pST (KaiC phosphorylated at S431 only) (natural protein)
chain: MTSAEMTSPNNNSEHQAIAKMRTMIEGFDDISHGGLPIGRSTLVSGTSGTGKTLFSIQFLYNGIIEFDEPGVFVTFEETPQDIIKNARSFGWDLAKLVDEGKLFILDASPDPEGQEVVGGFDLSALIERINYAIQKYRARRVSIDSVTSVFQQYDASSVVRRELFRLVARLKQIGATTVMTTERIEEYGPIARYGVEEFVSDNVVILRNVLEGERRRRTLEILKLRGTSHMKGEYPFTITDHGINIFPLGAMRLTQRSSNVRVSSGVVRLDEMCGGGFFKDSIILATGATGTGKTLLVSRFVENACANKERAILFAYEESRAQLLRNAYSWGMDFEEMERQNLLKIVCAYPESAGLEDHLQIIKSEINDFKPARIAIDSLSALARGVSNNAFRQFVIGVTGYAKQEEITGLFTNTSDQFMGAHSITDSHISTITDTIILLQYVEIRGEMSRAINVFKMRGSWHDKAIREFMISDKGPDIKDSFRNFERIISGSPTRITVDEKSELSRIVRGVQEKGPES
modifications: phosphorylated S431 (pS431)
B5: KaiC T432V mutant (KaiC-SV) (natural protein)
chain: MTSAEMTSPNNNSEHQAIAKMRTMIEGFDDISHGGLPIGRSTLVSGTSGTGKTLFSIQFLYNGIIEFDEPGVFVTFEETPQDIIKNARSFGWDLAKLVDEGKLFILDASPDPEGQEVVGGFDLSALIERINYAIQKYRARRVSIDSVTSVFQQYDASSVVRRELFRLVARLKQIGATTVMTTERIEEYGPIARYGVEEFVSDNVVILRNVLEGERRRRTLEILKLRGTSHMKGEYPFTITDHGINIFPLGAMRLTQRSSNVRVSSGVVRLDEMCGGGFFKDSIILATGATGTGKTLLVSRFVENACANKERAILFAYEESRAQLLRNAYSWGMDFEEMERQNLLKIVCAYPESAGLEDHLQIIKSEINDFKPARIAIDSLSALARGVSNNAFRQFVIGVTGYAKQEEITGLFTNTSDQFMGAHSITDSHISVITDTIILLQYVEIRGEMSRAINVFKMRGSWHDKAIREFMISDKGPDIKDSFRNFERIISGSPTRITVDEKSELSRIVRGVQEKGPES

Legend:
[1] = biological target: B5; assay: SEC-MALS
crystal structure = biological target: the molecule itself; assay: crystal structure

| Binder | binding result [1] | stoichiometry N (crystal structure) | also measured |
| --- | --- | --- | --- |
| B1 | binds | – | – |
| B2 | binds | – | – |
| B3 | – | 6 | – |
| B4 | – | 6 | – |
| B5 | – | – | binding result (crystal structure): binds |
